Data set [1] concerns ACDK proteins (immunoprecipitated from brain tissue extracts with the anti-ACDK-specific antibody).
Data set [2] has as its system cyclin A (immunoprecipitated).

As to CDK2 (immunoprecipitated, native), in data set [1], the “observed phosphorylation efficiency of pRB, against the cyclin A-CDK2 complex” value is listed as “ACDK-CDK2 activity was approximately 2-fold higher than that of cyclin A-CDK2 complex” and the “pRB phosphorylation (kinase reaction, Western blot with pRB phosphospecific antibodies)” value (“pRB phosphorylation” for short) is “pRB was phosphorylated by ACDK-CDK2 complex at threonine 821”. The “pRB phosphorylation” value in data set [2] is “Lane B, pRB phosphorylated by cyclin A-CDK2 (positive control)”.
Consider CDK1 (immunoprecipitated, native), for which the “pRB phosphorylation” value in data set [1] is reported as “by ACDK-CDK1 complex at serine 249 and/or threonine 252”; in data set [2], “Lane B, pRB phosphorylated by cyclin A-CDK1 (positive control)”.

Source of the values: US20060099701.
